Test results reported in PMC9164447.

Target: SARS-CoV-2 nucleocapsid N protein wild type (SARS-CoV-2) (UniProt P0DTC9)
Experiment: fluorescence anisotropy

Question: NNNNNNNNNN [10-nt degenerate RNA] was tested. Which Kd did it give?
Answer: 28 nM
